Results: publication PMC8892516, “Intragenic suppressors unravel the role of the SCREAM ACT-like domain for bHLH partner selectivity in stomatal development” (Proceedings of the National Academy of Sciences of the …, 2022)

Legend:
[1] = molecular target: GST-fused SCRMΔC (1-404) (Arabidopsis thaliana) (UniProt Q9LSE2); test: BLI; as a1, samples incubated 30 min with a 1:4 molar ratio of the synthetic E-box repeat fragment; analyte 200-3.125 nM or 1000-25 nM
GST-fused SCRM (1-494) [2] = molecular target: T1, GST-fused SCRM (1-494) (Arabidopsis thaliana, UniProt Q9LSE2 1-494); test: as above; settings: both partners purified
T1 construct: SCREAM (SCRM, also known as ICE1), Arabidopsis thaliana, At3G26744, residues 1-494; pGEX-4T-1 with thrombin site; GST kept because the protein was loaded on anti-GST probes for BLI; also called SCREAM; ICE1; source: E. coli BL21, purified (glutathione agarose resin); not shown: GST, N-terminal, kept
T1 sequence (looked up): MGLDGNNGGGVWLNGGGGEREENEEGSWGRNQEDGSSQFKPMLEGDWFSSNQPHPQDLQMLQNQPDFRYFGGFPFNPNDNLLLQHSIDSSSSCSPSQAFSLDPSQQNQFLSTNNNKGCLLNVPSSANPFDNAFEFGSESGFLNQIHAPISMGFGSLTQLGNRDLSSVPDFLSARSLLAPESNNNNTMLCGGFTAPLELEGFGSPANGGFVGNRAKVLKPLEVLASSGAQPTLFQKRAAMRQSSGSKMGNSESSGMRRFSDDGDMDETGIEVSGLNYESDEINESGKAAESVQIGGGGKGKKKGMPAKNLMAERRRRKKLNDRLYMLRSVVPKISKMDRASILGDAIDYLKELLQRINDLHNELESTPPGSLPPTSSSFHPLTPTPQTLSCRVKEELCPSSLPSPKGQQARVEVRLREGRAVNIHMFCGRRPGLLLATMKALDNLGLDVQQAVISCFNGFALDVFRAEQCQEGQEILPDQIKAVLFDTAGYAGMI

[3] = molecular target: GST-fused SCRMΔC (1-404) (Arabidopsis thaliana) (UniProt Q9LSE2); test: BLI; as a1, samples incubated 30 min with a 1:4 molar ratio of the TMM promoter fragment containing the E-box; analyte 200-3.125 nM or 1000-25 nM
GST-fused SCRM (1-494) [4] = molecular target: T1, GST-fused SCRM (1-494); test: as above; settings: both partners purified
GST-fused SCRM (1-494) [5] = molecular target: T1, GST-fused SCRM (1-494); test: BLI; as a1, samples incubated 30 min with a 1:4 molar ratio of the TMM promoter fragment containing a mutant E-box (control); analyte 200-3.125 nM or 1000-25 nM; settings: both partners purified
GST-fused SCRM (1-494) [6] = molecular target: T1, GST-fused SCRM (1-494); test: BLI; Octet Red96; anti-GST probes loaded with 500 nM GST-SCRM or GST-SCRMΔC; SPCH/MUTE/FAMA as analyte at 200-3.12 nM; 30 °C; 1x PBS, 0.02% Tween 20; no DNA; 1:1 model for kon, koff and KD, steady-state analysis for KD (SS); settings: both partners purified
SPCH (ΔNSPCH, 98-364) = molecular target: T2, SPCH (ΔNSPCH, 98-364) (Arabidopsis thaliana, UniProt Q700C7 98-364); test: ITC; Malvern PEAQ-ITC; 40 µM SCRM/SCRMΔC injected into 4 µM SPCH/MUTE/FAMA; PBS, pH 7.2 (Table S1; methods: pH 7.4); 25 °C; single binding site model; means of two experiments; settings: both partners purified
T2 construct: the only recombinant SPCH with bHLH domain that the methods list is ΔNSPCH (98-364); source: E. coli BL21, purified (glutathione resin, thrombin, Superdex-200); not shown: GST, N-terminal, cleaved
T2 sequence (looked up): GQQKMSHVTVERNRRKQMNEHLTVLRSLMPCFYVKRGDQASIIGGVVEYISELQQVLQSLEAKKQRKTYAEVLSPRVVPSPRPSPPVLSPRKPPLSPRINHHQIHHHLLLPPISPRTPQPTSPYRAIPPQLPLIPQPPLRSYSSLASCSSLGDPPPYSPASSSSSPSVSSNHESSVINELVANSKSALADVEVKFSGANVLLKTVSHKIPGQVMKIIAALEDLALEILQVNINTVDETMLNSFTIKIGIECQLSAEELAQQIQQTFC

FAMA (ΔNFAMA) = molecular target: T3, FAMA (ΔNFAMA) (Arabidopsis thaliana, Limits not printed. Start set by analogy with the printed ΔNSPCH 98-364 (one residue before the annotated bHLH). Runs to the native C-terminus. Tag or fusion carrier omitted.); test: as above; settings: both partners purified
T3 chain: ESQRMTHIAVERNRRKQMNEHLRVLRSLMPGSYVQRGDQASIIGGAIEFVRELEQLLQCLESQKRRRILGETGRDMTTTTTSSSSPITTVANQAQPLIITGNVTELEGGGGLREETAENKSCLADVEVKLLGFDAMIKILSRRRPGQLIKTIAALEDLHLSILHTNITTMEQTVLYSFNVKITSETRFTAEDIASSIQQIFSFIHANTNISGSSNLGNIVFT

B1: MUTE (1-202) (natural protein, Arabidopsis thaliana, UniProt Q9M8K6 1-202, looked up)
chain: MSHIAVERNRRRQMNEHLKSLRSLTPCFYIKRGDQASIIGGVIEFIKELQQLVQVLESKKRRKTLNRPSFPYDHQTIEPSSLGAATTRVPFSRIENVMTTSTFKEVGACCNSPHANVEAKISGSNVVLRVVSRRIVGQLVKIISVLEKLSFQVLHLNISSMEETVLYFFVVKIGLECHLSLEELTLEVQKSFVSDEVIVSTN
notes: MUTE, Arabidopsis thaliana, residues 1-202; MUTE (1-202) was made both as a GST fusion (pGEX-4T-1, thrombin-cleavable) and with an N-terminal His tag (pET28a); also called MUTE-HIS; MUTE-histag; source: E. coli BL21, purified (Ni-NTA or glutathione resin, Superdex-200)
[1]
  Kd: 545 nM
  koff: 0.0017 s⁻¹
  kon: 3100 M⁻¹ s⁻¹
GST-fused SCRM (1-494) [2]
  Kd: 5.1 ± 0.3 nM
  koff: 0.000285 s⁻¹
  kon: 56200 M⁻¹ s⁻¹
[3]
  Kd: 565 nM
  koff: 0.0016 s⁻¹
  kon: 2850 M⁻¹ s⁻¹
GST-fused SCRM (1-494) [4]
  Kd: 7.3 ± 0.2 nM
  koff: 0.000286 s⁻¹
  kon: 39200 M⁻¹ s⁻¹
GST-fused SCRM (1-494) [5]
  Kd: 11.1 ± 0.8 nM
  koff: 0.00023 s⁻¹
  kon: 20800 M⁻¹ s⁻¹
GST-fused SCRM (1-494) [6]
  Kd: 6.1 ± 0.5 nM
  koff: 0.000147 s⁻¹
  kon: 24200 M⁻¹ s⁻¹

B2: SCRMΔC (1-404), GST removed (domain or fragment, Arabidopsis thaliana, UniProt Q9LSE2 1-404, looked up)
chain: MGLDGNNGGGVWLNGGGGEREENEEGSWGRNQEDGSSQFKPMLEGDWFSSNQPHPQDLQMLQNQPDFRYFGGFPFNPNDNLLLQHSIDSSSSCSPSQAFSLDPSQQNQFLSTNNNKGCLLNVPSSANPFDNAFEFGSESGFLNQIHAPISMGFGSLTQLGNRDLSSVPDFLSARSLLAPESNNNNTMLCGGFTAPLELEGFGSPANGGFVGNRAKVLKPLEVLASSGAQPTLFQKRAAMRQSSGSKMGNSESSGMRRFSDDGDMDETGIEVSGLNYESDEINESGKAAESVQIGGGGKGKKKGMPAKNLMAERRRRKKLNDRLYMLRSVVPKISKMDRASILGDAIDYLKELLQRINDLHNELESTPPGSLPPTSSSFHPLTPTPQTLSCRVKEELCPSSLPSP
notes: SCREAM (SCRM, ICE1), Arabidopsis thaliana, At3G26744, residues 1-404 (lacks the C-terminal ACTL domain); Used for ITC; the methods tell thrombin cleavage of the GST-fused proteins in general, not for ITC by name; also called SCRM1ΔC; source: E. coli BL21, purified (glutathione resin, thrombin, Superdex-200); not shown: GST, N-terminal, cleaved
SPCH (ΔNSPCH, 98-364)
  stoichiometry N: 0.95
FAMA (ΔNFAMA)
  stoichiometry N: 0.96
